From the nanobody polyreactivity screen of Harvey et al. (2022)

Assay: yeast display, Sf9 membrane polyspecificity reagent, FACS + sequencing; frameworks hold sequencing errors
Summary of the method: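 After 36–48 hours of galactose induction, yeast (Saccharomyces cerevisiae BJ5465) displaying a synthetic nanobody library were stained at 4 °C for 1 hour with 10% biotinylated, detergent-solubilized Sf9 membrane reagent. Streptavidin microbeads enriched the stained cells before FACS sorting into low and high (top ~1%) gates on anti-HA and streptavidin fluorescence. Each clone's polyreactivity label reflects its gate of origin.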

| Sequence | polyreactivity (PSR sort gate) |
| --- | --- |
| QVQLVESGGGLVQAGGSLRLSCAASGSTFFRNAMGCYRQAPGKERELVADISASGGSTYYADSVKGRFTISRDNAKNTVYLQMNSLKPEDTAVYYCNALYIYFYNYLTMDYWGQGTQVTVSS | low polyreactivity |
| QVQLVESGGGLVQAGGSLRLSCAASGSTFRIYAMRSYRQAPGKERELGARISWNGGRTYYADSVKGRFTISRVNAKNTVYLQMNSLKPEDTAGYYCNALVPPGYDYWGQGTQVSVSS | high polyreactivity |
| QVQLVESGGGLVQAGGSLRLSCAASGFTFAHNAMGWYRQAPGKERELVAAISSRGGRTFYADSVKGRFTISRDNAKNTVYLQMNSLKPEDTAVYYCNRVRSFQYDYWGQGTQVTVSS | high polyreactivity |
| QVQLVESGVGLVQAGGSLRLSCAASGRIFRWYAMGWYRQAPGKERELVASITWNGGSTYYADSVKGRFTISRDNAKNTVYLQMNSLKPEDNAVYYCAVPFYRGPEMGYWGQGTQVTVSS | high polyreactivity |
| QVQLVESGGGLVQAGGSLRLSCAASGSTFSWYAMGWYRQAPGKERELVAAISSGGSTNYADSVKGRFTISRDNAKNTVYLQMNSMKPEDTAVYYCAAVWSRFLISYSTGWWFEYWGQGTKVTVSS | low polyreactivity |
| QVQLVESGGGLVQAGGSLRLSCAASGSTFEYYAMGWYRQAPGKERELVAAITRRGGSTYYADSVKGRFTISRDNAKNTVYLQMNSLKPEDTAVYYCAAVPTQKSPRTHDYWGQGTQVTVSS | low polyreactivity |
| QVQLVESGGGLVQAGGSLRLSCAASGLTFRRYDMGWYRQAPGKERELVAAITGGGSTYYADSVKGRFTISRDNAKNTVYLQMNSLKPEDTAVYYCAAGTWYWSYAYDYWGQGTQVTVSS | high polyreactivity |
| QVQLVESGGGLVQAGGSLRLSCAASGFTFRYYAMGWYRQAPGKERELVAAISKSGGSTYYADSVKGRFTISRDNAKNTVYLQMNSLKPEDTAVYYCAARNWFSYYQIMDYWGQGTQVTVSS | high polyreactivity |
| QVQLVESGGGLVQAGGSLRLSCAASGIAYTYNAMGWYRQAPGKERELVASISRTGGSTRYADSVKGRFTISRDNAKNTFYLQMNSLKPEDTAVYYCAALSWRYVKYRFDYWGQGTQVTVSS | high polyreactivity |
| QVQLVESGGGLVQAGGSLRLSCAASGIIFYDYAMGWYRPAPGKERELVAAINYSGGSTYYADSVKGRFTISRDNAKNTVYLQMNSLKPEDTAVYYCAADNAVWEYDYWGQGTQVTVSS | low polyreactivity |
| QVQLVESGGGLVQAGGSLRLSCAASGFTFYDYSMGWYRQAPGTERELVAASSDSGGITYYADSVKGRFTISRDNAKNTVYLQMNRLKPEDTAVYYCAADFATPGPEYDYWGQGTQVTVSS | low polyreactivity |
| QVQLVESAGGLVQAGGSLSLSCAASGSTFAGYVMGWYRQAPGKERELVAAISRSGGSTYYADSVKGRFTISRDNAKNTVYLQMNSLKPEDTAVYYCAARNSPGLPGDYWGQGTQVTVSS | high polyreactivity |
| QVQLVESGGGLVQAGGSLRLSCAASGHILFKYTMGWYRQAPGKERELVAAISRSGGTTYYADSVKGRFTISRDNAKNTVYLQMNSLKPEDTAVYYCAARVTPGRNGGGYWGQGTQVTVSS | high polyreactivity |
| QVQLVESGGGLVQAGGSLRLSCAASGRTFSSNAMGWYRQAPGKERELVASISFRGGRTYYADSVKGRFTISRDNAKNTVYLQMYSLKPEDTAVYYCVSGTKRTGYGYWGQGTQVTVSS | high polyreactivity |
| QVQLVESAAGLVQAGGSLRLSCAASGSTFGHYTMGWYRQAPGKERDLVAAISWSGGRTYYADSVKGRFTISRDYAKNTVYLQMNSLKPEDTAVYYCYVGYRGWSVNSWGQGTQVTVSS | high polyreactivity |
| QVQLVESGGGLVQAGGSLRLSCAASGNIFSANAMVWDRQAPGKEREFVAAISSTGGSTYYADSVKGRFTISRDNAKNTVYLQMNSLIPEDTAVYYCAAYIRRYLHYDYWGQGSQVTVSS | high polyreactivity |

| Sequence | polyreactivity (PSR sort gate) |
| --- | --- |
| QVQLVESGGGLVQAGGSLRLSCAASGSIFASYAMGWYRQAPGKERELVAAISWNGGSTYYADSVKGRFTISRDNAKNTVYFQMNSLKPEDTAVYYCAAVNRKSQLYGYWGQGTQVTVSS | high polyreactivity |
| QVQLVESGGGLVQAGGILRLSCAASGFTFWYYVMGWYRQAPGKERELVAAITSSGDSTYYADSVKGRFTISRDNAKNTVYLQMNSLKPEDTAVYYCAAQRYPFERVYWGQGTQVTVSS | high polyreactivity |
| QVQLVESGGGLVQAGGSLRLSCAASGNTFYRYAMGWYRQAPGKERELVAAITWSGSRTYYADSVKGRFTISRDNAKNTVYLQMNSLKPEDTAVYYCAAPFWYVGPAMDYWGQGTQVTVSS | low polyreactivity |
| QVQLVESGGGLVQAGGSLRLSCAASGLIFPVYDMGWYRQAPGKERELVAAITRSGDSTYYADSVKGRFTISRDNAKNTVYLQMNSLKPEDTAVYYCAAQPGTASYAGDGDSWGQGTQVTVSS | low polyreactivity |
| QVQLVESGGGLVQAGGSLRLSCSSSGRIFNDYAMGWYRKAPGKERELVATYADSEKGRFTISRYTAKKTVYLQMNSLKPEDTAVYYCAADFPSFPDFRPEYDYWGQGPQVTVSS | low polyreactivity |
| QVQLVESGGGLVQAGGSLRLSCAASGRTFTRYARGWYRQAPGKERELVAVISWSVGSTYYADSVKGRFTISRDNAKNTVYLQMNSLKPEDTAVYYCNSDVLSWSQEYDYWGQGTQVTVSS | low polyreactivity |
| QVQLVESGGGLLQAGGSLRLSCAASGRICRYYAMGGYRQAPGKERELVAGIRTSGGRTYADSVKGRFTISRDYAKNTVYLQMNSLKPEDTAVYYCAAGRRTLSMYYWGQGTQVTVSS | high polyreactivity |
| QVQLVESGGGLVHAGGSLRLSCAASGFTFGYYALGWYRQAPGKERELVASISRSGGSTNYADSVKGRFTISRDNAKYTVYFQMNRLKPEDTAVYYCNKRVNTYRSGSRRYDYWGQGTQVTVSS | high polyreactivity |
| QVQLVESGGGLVQAGGSLRLSCAASGRIFSRYAMGWYRQAPGKERELVAAINKSGGSTYYADSVKGRFTISRDNAKNTVYLQMNSLKPEDTAVYYCATDDPVYDYDYWGQGTQVTVSS | high polyreactivity |
| QVQLVESGGGLVQAGGSLRLSCAASGSTFTSYAMGWYRQAPGKERELVAAISKSGGSTNYADSVKGRFTISRDNAKNTVYLQMNSLKPEDTAVYYCAALGIGSYRRYSGYDYWGQGTQVTVSS | low polyreactivity |
| QVQLVESGGGLVQAGGSLRLSCAASGRIFNGNAMGWYRQAPGKERELVAAISTSGGRTYYADSVKGRFTISRDNAKNTVYLQMNSLKPEDTAVYYCAARYFRRDYIDYDYWGQGTQVTVSS | low polyreactivity |
| QVQLVESGGGLVQAGGSLRLSCAASGRIFFTYTMGWYRQAPGKERELVAAITGGGARTYYADSVKGRFTISRDNSKNTVYLQMNSLKPEDTAVYYCAKGWQRIGFYYWGQGTQVTVSS | high polyreactivity |
| QVKLVESGGGLVQAGGSLRLSCAASGFTVYGYSMGWYRQEPGKERELVAAITSVGDTNYADSVKGRFTISRDNAKNNVYLQINSLKPEDTAVYYCKADPVYYFYWWTGDYWGQGTQETVSS | low polyreactivity |
| QVQLVESGGGLVQAGGSLRLSCAASGLILGVYSMGWYRQAPGKEREFVASINYGGGSTYYADSGKGRFTISRDNAKNTVYLQMNSLKPEDTAVYYCNARSRWGGTRLYSYDYWGQGTQVTVSS | low polyreactivity |
| QVQLVESGGGLVQAGGSLRLSCAASGIIFWRYAMGWYRQAPGKERELVAAISRRGGSTYYADSVKGRFTISRDNAKITVYLQMNSLKPEDTAVYYCAVLDWTLHYRSDYWGQGTQVTVSS | high polyreactivity |
| QVQLVESGGGLVQAGGSLRLSCAASGRIFYGYAMGWYRQAPGKERELVAAITYIGGPYYADSVKGRFTISRDNAKNTVYFQMNSQKPEDTAVYYCATEPFYTYGYYTYPYWYDYWGQGTQVTVSS | low polyreactivity |
